# Values quoted from earlier work, collected in PMC3429939.
# Target: galectin-1 CRD (Homo sapiens) (UniProt P09382)
substance,measurement,value
galectin-1 CRD (from UniProt P09382),Kd,7 µM
